PMC4259887

Legend:
[1] = target: E2s mutant Asn560Ala (Hepatitis E virus (HEV)) (UniProt Q81871); assay: non-reducing SDS-PAGE; wild type E2s and its Ala mutants (expressed in E. coli) on non-reducing SDS-PAGE; dimer or monomer band
[2] = target: E2s mutant Gln531 to Ala (Hepatitis E virus (HEV)) (UniProt Q81871); assay: as above
[3] = target: E2s mutant Gln568 to Ala (Hepatitis E virus (HEV)) (UniProt Q81871); assay: as above
[4] = target: E2s mutant Ile529Ala (Hepatitis E virus (HEV)) (UniProt Q81871); assay: as above
[5] = target: E2s mutant Pro604 to Ala (Hepatitis E virus (HEV)) (UniProt Q81871); assay: as above
[6] = target: E2s mutant Ser527 to Ala (Hepatitis E virus (HEV)) (UniProt Q81871); assay: as above
[7] = target: E2s mutant Thr489 to Ala (Hepatitis E virus (HEV)) (UniProt Q81871); assay: as above
[8] = target: E2s, protruding homodimer domain of HEV capsid protein (wild type) (Hepatitis E virus (HEV)) (UniProt Q81871); assay: as above
monoclonal antibody 8C11 = assay: CLIA (chemiluminescent immunoassay); conditions: rE2-coated microplate; 8C11-HRP only; parent: est. 1.0e7; read off a plot

With “E2s mutant Asn560Ala (from UniProt Q81871 455-603) (domain or fragment)” the stoichiometry N [1] was 2.

In the case of “E2s mutant Gln531 to Ala (from UniProt Q81871 455-603) (domain or fragment)”, the stoichiometry N [2] is reported as 2.

“E2s mutant Gln568 to Ala (from UniProt Q81871 455-603) (domain or fragment)” gave a stoichiometry N [3] of 2.

With “E2s mutant Ile529Ala (from UniProt Q81871 455-603) (domain or fragment)” the stoichiometry N [4] was 2.

Work on “E2s mutant Pro604 to Ala (from UniProt Q81871 455-603) (domain or fragment)” yielded a stoichiometry N [5] of 2.

“E2s mutant Ser527 to Ala (from UniProt Q81871 455-603) (domain or fragment)” showed a stoichiometry N [6] of 2.

“E2s mutant Thr489 to Ala (from UniProt Q81871 455-603) (domain or fragment)” was tested, and the stoichiometry N [7] was 2.

In the case of “E2s, protruding homodimer domain of HEV capsid protein (wild type) (from UniProt Q81871 455-603) (domain or fragment)”, the stoichiometry N [8] is reported as 2.

In the case of “E2s, protruding homodimer domain of HEV capsid protein (wild type) (from UniProt Q81871) I529A”, the response (monoclonal antibody 8C11) is reported as 9.7e+06 RLU/s.

In the case of “E2s, protruding homodimer domain of HEV capsid protein (wild type) (from UniProt Q81871) N560A”, the response (monoclonal antibody 8C11) is reported as 8.7e+06 RLU/s.
